Results from publication PMC12084609, “Structural insights into small-molecule agonist recognition and activation of complement receptor C3aR” (The EMBO Journal, 2025).
Residue numbers refer to the chain shown, from its start. Values joined by “and” are separate entries in the source; they are usually repeats but may differ in a detail not shown here. Identical values can stand only once.

What was measured:
Assay type in all cases: cell-based
[1] = target: T1, C3aR P99^3.29A (Homo sapiens, UniProt Q16581, P99A); assay: GloSensor-based cAMP assay, C3aR mutant P99A; settings: for cAMP response (% Forskolin): P993.29A, single replicates
T1 construct: expressed in transfected cells; host or cells: HEK293T
T1 sequence (Q16581 1-482 P99A): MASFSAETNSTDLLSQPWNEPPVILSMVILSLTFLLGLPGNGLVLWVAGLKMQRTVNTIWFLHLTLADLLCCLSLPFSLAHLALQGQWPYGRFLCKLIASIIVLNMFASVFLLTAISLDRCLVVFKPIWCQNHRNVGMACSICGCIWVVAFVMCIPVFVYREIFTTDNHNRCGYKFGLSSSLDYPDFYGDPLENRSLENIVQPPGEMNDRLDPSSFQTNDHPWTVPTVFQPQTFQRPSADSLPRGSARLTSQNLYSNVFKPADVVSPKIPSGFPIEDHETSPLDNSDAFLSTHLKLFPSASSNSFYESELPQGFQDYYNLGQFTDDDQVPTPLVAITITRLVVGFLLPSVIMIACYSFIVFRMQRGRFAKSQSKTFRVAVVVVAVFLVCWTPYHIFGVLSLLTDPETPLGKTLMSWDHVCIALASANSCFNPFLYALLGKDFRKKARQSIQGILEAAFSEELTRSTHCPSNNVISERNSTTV
Description: (§1) HEK293T cells were seeded on 6-well plates (NEST) and transfected with pGlosensor™-22F plasmids (Promega) and pcDNA3.1 plasmids encoding C3aR or its mutants an with N-terminal FLAG tag. After 48 h, cells were detached with Accutase solution (Sigma-Aldrich) and washed with PBS, and resuspended in assay buffer (CO2-independent medium with 0.5 mg mL^−1D-luciferin). 100,000–200,000 cells were seeded on 96-well white bottom plates (SPL) and incubated at 37 °C for 45 min followed by 45 min incubation at room temperature. After 90 min of incubation, basal luminescence signals were recorded. In total, 25 μl of test ligand with various concentrations and 1 μM Forskolin (Sigma-Aldrich) were treated to the cells and luminescence signals were measured by Tristar 2 LB 942 multimode reader (Berthold). […] Relative luminescence unit (%) was calculated with the signal of wells treated with vehicle as 0% and the signal of wells treated with 1 μM Forskolin as 100% (DiRaddo et al, [2014]). Nonlinear regression was performed using a three-parameter logistic equation.

[2] = target: T2, C3aR WT (Homo sapiens, UniProt Q16581); assay: GloSensor-based cAMP assay, WT C3aR (HEK293T)
T2 construct: expressed in transfected cells; host or cells: HEK293T
T2 sequence (Q16581 1-482): T1 sequence (Q16581 1-482 P99A) with A99P
Description: as §1

[3] = target: T3, C3aR Y393^6.51A (Homo sapiens, UniProt Q16581, Y393A); assay: GloSensor-based cAMP assay, C3aR mutant Y393A; settings: for cAMP response (% Forskolin): Y3936.51A, single replicates
T3 construct: expressed in transfected cells; host or cells: HEK293T
T3 sequence (Q16581 1-482 Y393A): T1 sequence (Q16581 1-482 P99A) with A99P, Y393A
Description: as §1

With “C3a: anaphylatoxin C3a, natural peptide ligand of C3aR (a 77-amino acid peptide), Sigma-Aldrich” the “Mean Diff. of pIC50, WT vs. P99A” value ([1]; Dunnett's multiple comparisons test, WT minus mutant) was 0.364, the “ΔpIC50 ± SE of Diff.” value ([1]; P99^3.29A relative to WT C3aR) was -0.36 ± 0.06 and the IC50 ([1]; P99^3.29A, dose-response plot, read-out: IC50) was 6.44 nM. The “pIC50 (Replicate)” value ([1]; P99^3.29A, individual replicates) was 8.35 and 8.23 and 8.15, the “pIC50 ± SEM (Mean)” value ([1]; P99^3.29A, mean of independent experiments) was 8.18 and the “cAMP response (% Forskolin)” value ([1]; Log[C3a (M)] -7) was 12.82 % Forskolin and 13.55 % Forskolin and 15.36 % Forskolin and 12.84 % Forskolin. For the same substance, the “cAMP response (% Forskolin)” value ([1]; Log[C3a (M)] -8) was 28.00 % Forskolin and 35.91 % Forskolin and 53.45 % Forskolin and 42.74 % Forskolin, the “cAMP response (% Forskolin)” value ([1]; Log[C3a (M)] -9) was 95.96 % Forskolin and 92.86 % Forskolin and 104.37 % Forskolin and 97.87 % Forskolin and the “cAMP response (% Forskolin)” value ([1]; Log[C3a (M)] -10) was 102.35 % Forskolin and 93.68 % Forskolin and 104.69 % Forskolin and 98.88 % Forskolin. For the same substance, the “cAMP response (% Forskolin)” value ([1]; Log[C3a (M)] -11) was 98.97 % Forskolin and 94.82 % Forskolin and 109.09 % Forskolin and 99.84 % Forskolin, the “cAMP response (% Forskolin)” value ([1]; Log[C3a (M)] -12) was 103.44 % Forskolin and 97.11 % Forskolin and 100.69 % Forskolin and 103.75 % Forskolin and the “cAMP response (% Forskolin)” value ([2]; Log[ligand (M)] -7, individual replicates) was 13.23 % Forskolin and 9.10 % Forskolin and 12.07 % Forskolin and 14.17 % Forskolin and 11.07 % Forskolin and 5.64 % Forskolin and 5.88 % Forskolin and 10.80 % Forskolin and 18.77 % Forskolin and 9.30 % Forskolin and 7.84 % Forskolin and 11.11 % Forskolin and 5.15 % Forskolin and 8.46 % Forskolin and 12.88 % Forskolin and 7.97 % Forskolin and 4.89 % Forskolin and 13.21 % Forskolin and 8.34 % Forskolin and 9.36 % Forskolin and 10.44 % Forskolin. For the same substance, the “cAMP response (% Forskolin)” value ([2]; Log[ligand (M)] -8, individual replicates) was 14.46 % Forskolin and 11.08 % Forskolin and 11.75 % Forskolin and 14.58 % Forskolin and 33.21 % Forskolin and 8.44 % Forskolin and 9.26 % Forskolin and 14.67 % Forskolin and 23.44 % Forskolin and 12.45 % Forskolin and 9.97 % Forskolin and 12.70 % Forskolin and 7.51 % Forskolin and 11.02 % Forskolin and 17.00 % Forskolin and 9.96 % Forskolin and 6.25 % Forskolin and 18.05 % Forskolin and 9.98 % Forskolin and 10.68 % Forskolin and 14.94 % Forskolin, the “cAMP response (% Forskolin)” value ([2]; Log[ligand (M)] -9, individual replicates) was 89.10 % Forskolin and 91.75 % Forskolin and 55.83 % Forskolin and 67.46 % Forskolin and 97.65 % Forskolin and 80.78 % Forskolin and 91.72 % Forskolin and 89.77 % Forskolin and 62.11 % Forskolin and 58.26 % Forskolin and 94.14 % Forskolin and 92.02 % Forskolin and 88.40 % Forskolin and 88.60 % Forskolin and 88.28 % Forskolin and 92.79 % Forskolin and 82.03 % Forskolin and 98.67 % Forskolin and 72.46 % Forskolin and 83.05 % Forskolin and 92.23 % Forskolin and the “cAMP response (% Forskolin)” value ([2]; Log[ligand (M)] -10, individual replicates) was 100.49 % Forskolin and 92.00 % Forskolin and 96.47 % Forskolin and 95.65 % Forskolin and 99.73 % Forskolin and 94.19 % Forskolin and 91.55 % Forskolin and 96.59 % Forskolin and 91.09 % Forskolin and 100.53 % Forskolin and 103.10 % Forskolin and 100.18 % Forskolin and 107.39 % Forskolin and 101.42 % Forskolin and 99.05 % Forskolin and 90.86 % Forskolin and 91.78 % Forskolin and 95.04 % Forskolin and 92.70 % Forskolin and 92.81 % Forskolin and 96.03 % Forskolin. The “cAMP response (% Forskolin)” value ([2]; Log[ligand (M)] -11, individual replicates) was 101.69 % Forskolin and 104.79 % Forskolin and 99.76 % Forskolin and 97.79 % Forskolin and 100.01 % Forskolin and 95.95 % Forskolin and 100.56 % Forskolin and 98.17 % Forskolin and 98.43 % Forskolin and 104.54 % Forskolin and 103.48 % Forskolin and 99.03 % Forskolin and 107.10 % Forskolin and 101.90 % Forskolin and 98.42 % Forskolin and 97.15 % Forskolin and 94.72 % Forskolin and 92.05 % Forskolin and 96.59 % Forskolin and 94.55 % Forskolin and 98.62 % Forskolin, the “cAMP response (% Forskolin)” value ([2]; Log[ligand (M)] -12, individual replicates) was 96.64 % Forskolin and 93.74 % Forskolin and 99.06 % Forskolin and 103.59 % Forskolin and 106.40 % Forskolin and 103.79 % Forskolin and 101.64 % Forskolin and 99.02 % Forskolin and 93.95 % Forskolin and 101.82 % Forskolin and 99.95 % Forskolin and 96.51 % Forskolin and 98.16 % Forskolin and 96.67 % Forskolin and 94.02 % Forskolin and 101.30 % Forskolin and 98.69 % Forskolin and 95.26 % Forskolin and 98.94 % Forskolin and 96.13 % Forskolin and 98.01 % Forskolin and the “pIC50 ± SEM (Mean)” value ([2]; WT C3aR, 1 μM Forskolin, mean of independent experiments) was 8.56. For the same substance, the “pIC50 Value” ([2]; WT C3aR, Figure EV1B numerical data, curve fit) was 8.52, the IC50 ([2]; WT C3aR, decrease in cAMP levels, read-out: IC50) was 2.87 nM and the “pIC50 (Replicate)” value ([2]; WT C3aR, individual replicates) was 8.46 and 8.98 and 8.82 and 8.27 and 8.58 and 8.47 (4×) and 8.89 and 8.95 and 8.48 and 8.53 (2×) and 8.50 and 8.45 and 8.54 and 8.67 and 8.44. For the same substance, the “cAMP response (% Forskolin)” value ([2]; WT, Log[C3a (M)] -7, single replicates) was 13.23 % Forskolin and 9.10 % Forskolin and 12.07 % Forskolin and 14.17 % Forskolin and 11.07 % Forskolin and 5.64 % Forskolin and 5.88 % Forskolin and 10.80 % Forskolin and 18.77 % Forskolin and 9.30 % Forskolin and 7.84 % Forskolin and 11.11 % Forskolin and 5.15 % Forskolin and 8.46 % Forskolin and 12.88 % Forskolin and 7.97 % Forskolin and 4.89 % Forskolin and 13.21 % Forskolin and 8.34 % Forskolin and 9.36 % Forskolin and 10.44 % Forskolin, the “cAMP response (% Forskolin)” value ([2]; WT, Log[C3a (M)] -8, single replicates) was 14.46 % Forskolin and 11.08 % Forskolin and 11.75 % Forskolin and 14.58 % Forskolin and 33.21 % Forskolin and 8.44 % Forskolin and 9.26 % Forskolin and 14.67 % Forskolin and 23.44 % Forskolin and 12.45 % Forskolin and 9.97 % Forskolin and 12.70 % Forskolin and 7.51 % Forskolin and 11.02 % Forskolin and 17.00 % Forskolin and 9.96 % Forskolin and 6.25 % Forskolin and 18.05 % Forskolin and 9.98 % Forskolin and 10.68 % Forskolin and 14.94 % Forskolin and the “cAMP response (% Forskolin)” value ([2]; WT, Log[C3a (M)] -9, single replicates) was 89.10 % Forskolin and 91.75 % Forskolin and 55.83 % Forskolin and 67.46 % Forskolin and 97.65 % Forskolin and 80.78 % Forskolin and 91.72 % Forskolin and 89.77 % Forskolin and 62.11 % Forskolin and 58.26 % Forskolin and 94.14 % Forskolin and 92.02 % Forskolin and 88.40 % Forskolin and 88.60 % Forskolin and 88.28 % Forskolin and 92.79 % Forskolin and 82.03 % Forskolin and 98.67 % Forskolin and 72.46 % Forskolin and 83.05 % Forskolin and 92.23 % Forskolin. The “cAMP response (% Forskolin)” value ([2]; WT, Log[C3a (M)] -10, single replicates) was 100.49 % Forskolin and 92.00 % Forskolin and 96.47 % Forskolin and 95.65 % Forskolin and 99.73 % Forskolin and 94.19 % Forskolin and 91.55 % Forskolin and 96.59 % Forskolin and 91.09 % Forskolin and 100.53 % Forskolin and 103.10 % Forskolin and 100.18 % Forskolin and 107.39 % Forskolin and 101.42 % Forskolin and 99.05 % Forskolin and 90.86 % Forskolin and 91.78 % Forskolin and 95.04 % Forskolin and 92.70 % Forskolin and 92.81 % Forskolin and 96.03 % Forskolin, the “cAMP response (% Forskolin)” value ([2]; WT, Log[C3a (M)] -11, single replicates) was 101.69 % Forskolin and 104.79 % Forskolin and 99.76 % Forskolin and 97.79 % Forskolin and 100.01 % Forskolin and 95.95 % Forskolin and 100.56 % Forskolin and 98.17 % Forskolin and 98.43 % Forskolin and 104.54 % Forskolin and 103.48 % Forskolin and 99.03 % Forskolin and 107.10 % Forskolin and 101.90 % Forskolin and 98.42 % Forskolin and 97.15 % Forskolin and 94.72 % Forskolin and 92.05 % Forskolin and 96.59 % Forskolin and 94.55 % Forskolin and 98.62 % Forskolin and the “cAMP response (% Forskolin)” value ([2]; WT, Log[C3a (M)] -12, single replicates) was 96.64 % Forskolin and 93.74 % Forskolin and 99.06 % Forskolin and 103.59 % Forskolin and 106.40 % Forskolin and 103.79 % Forskolin and 101.64 % Forskolin and 99.02 % Forskolin and 93.95 % Forskolin and 101.82 % Forskolin and 99.95 % Forskolin and 96.51 % Forskolin and 98.16 % Forskolin and 96.67 % Forskolin and 94.02 % Forskolin and 101.30 % Forskolin and 98.69 % Forskolin and 95.26 % Forskolin and 98.94 % Forskolin and 96.13 % Forskolin and 98.01 % Forskolin. The “ΔpIC50 ± SE of Diff.” value ([3]; Y393^6.51A relative to WT C3aR) was -1.34 ± 0.2, the IC50 ([3]; Y393^6.51A, dose-response plot, read-out: IC50) was 35.3 nM and the “pIC50 ± SEM (Mean)” value ([3]; Y393^6.51A, mean of independent experiments) was 7.26. For the same substance, the “cAMP response (% Forskolin)” value ([3]; Log[C3a (M)] -7) was 22.11 % Forskolin and 35.95 % Forskolin and 17.03 % Forskolin and 39.16 % Forskolin and 16.00 % Forskolin and 10.74 % Forskolin, the “cAMP response (% Forskolin)” value ([3]; Log[C3a (M)] -8) was 77.53 % Forskolin and 92.37 % Forskolin and 48.78 % Forskolin and 85.94 % Forskolin and 83.42 % Forskolin and 59.04 % Forskolin and the “cAMP response (% Forskolin)” value ([3]; Log[C3a (M)] -9) was 100.98 % Forskolin and 105.20 % Forskolin and 100.01 % Forskolin and 92.90 % Forskolin and 94.02 % Forskolin and 86.75 % Forskolin. For the same substance, the “cAMP response (% Forskolin)” value ([3]; Log[C3a (M)] -10) was 91.84 % Forskolin and 102.66 % Forskolin and 96.87 % Forskolin and 100.10 % Forskolin and 89.56 % Forskolin and 88.42 % Forskolin, the “cAMP response (% Forskolin)” value ([3]; Log[C3a (M)] -11) was 102.78 % Forskolin and 104.06 % Forskolin and 100.84 % Forskolin and 95.25 % Forskolin and 103.11 % Forskolin and 88.56 % Forskolin and the “cAMP response (% Forskolin)” value ([3]; Log[C3a (M)] -12) was 99.54 % Forskolin and 99.47 % Forskolin and 94.11 % Forskolin and 90.18 % Forskolin and 94.48 % Forskolin and 86.37 % Forskolin.
